One molecule from patent publication US12723078 (University of Texas, dated 2026) can be followed below.

One assay deals with T1, LILRA4 on reporter cells (UniProt P59901 24-499).
T1 construct: whole, on cells
The experiment in a line: flow cytometry on 2B4 cells expressing the LILR, PE.

The target of a further assay is T2, LILRB4 on reporter cells (UniProt Q8NHJ6 22-448).
T2 construct: whole, on cells
The description is as above.

The target of a further assay is T3, LILRA5 on reporter cells (UniProt A6NI73 42-299).
T3 construct: whole, on cells
Described as above.

Assay [1] addresses T4, LILRA1 on reporter cells (UniProt O75019 17-489, limits assumed).
T4 construct: whole, on cells
The assay is described as above.

Assay [2] concerns the target T5, LILRA2 on reporter cells (UniProt Q8N149 24-483).
T5 construct: whole, on cells
Described as above.

The target in a further assay is T6, LILRB5 on reporter cells (UniProt O75023 24-590, limits assumed).
T6 construct: whole, on cells
Described as above.

The target in a further assay is T7, LILRB2 on reporter cells (UniProt Q8N423 22-597).
T7 construct: whole, on cells; The construct is not described
The description is as above.

The next assay addresses T8, LILRA6 on reporter cells (UniProt Q6PI73 24-481).
T8 construct: whole, on cells
Described as above.

Assay [3] concerns the target T9, LILRB1 expressed on cell surface (human, UniProt Q8NHL6 24-650).
T9 construct: One entry is used for LILRB1 on reporter cells and on NK cells; also called LILRB1 NFAT-GFP reporter cell; LILRB1 reporter cells
The description is as above.

The next assay addresses T10, LILRB3 on reporter cells (UniProt O75022 24-631, limits assumed).
T10 construct: whole, on cells
The assay is described as above.

Assay [4] addresses T4, LILRA1 on reporter cells. The experiment in a line: flow cytometry on LILR reporter cells, anti-rabbit IgG PE. In general terms: In flow cytometry, cells or beads pass a laser one at a time.
For assay [5], the target named is T5, LILRA2 on reporter cells. The description is as above.

T5 sequence (Q8N149 24-483): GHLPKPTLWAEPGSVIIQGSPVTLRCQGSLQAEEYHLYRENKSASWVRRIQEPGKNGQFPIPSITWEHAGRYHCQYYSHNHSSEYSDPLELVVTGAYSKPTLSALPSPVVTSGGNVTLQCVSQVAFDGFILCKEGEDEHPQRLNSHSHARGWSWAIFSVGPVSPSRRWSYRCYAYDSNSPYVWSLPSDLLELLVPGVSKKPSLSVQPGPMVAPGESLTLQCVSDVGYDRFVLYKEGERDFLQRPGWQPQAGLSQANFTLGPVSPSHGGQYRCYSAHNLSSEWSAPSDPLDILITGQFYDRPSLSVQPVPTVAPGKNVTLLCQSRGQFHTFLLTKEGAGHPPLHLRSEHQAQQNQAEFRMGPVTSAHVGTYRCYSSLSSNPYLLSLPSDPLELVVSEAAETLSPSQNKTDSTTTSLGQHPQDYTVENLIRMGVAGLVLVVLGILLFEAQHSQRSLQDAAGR
T4 sequence (O75019 17-489 limits assumed): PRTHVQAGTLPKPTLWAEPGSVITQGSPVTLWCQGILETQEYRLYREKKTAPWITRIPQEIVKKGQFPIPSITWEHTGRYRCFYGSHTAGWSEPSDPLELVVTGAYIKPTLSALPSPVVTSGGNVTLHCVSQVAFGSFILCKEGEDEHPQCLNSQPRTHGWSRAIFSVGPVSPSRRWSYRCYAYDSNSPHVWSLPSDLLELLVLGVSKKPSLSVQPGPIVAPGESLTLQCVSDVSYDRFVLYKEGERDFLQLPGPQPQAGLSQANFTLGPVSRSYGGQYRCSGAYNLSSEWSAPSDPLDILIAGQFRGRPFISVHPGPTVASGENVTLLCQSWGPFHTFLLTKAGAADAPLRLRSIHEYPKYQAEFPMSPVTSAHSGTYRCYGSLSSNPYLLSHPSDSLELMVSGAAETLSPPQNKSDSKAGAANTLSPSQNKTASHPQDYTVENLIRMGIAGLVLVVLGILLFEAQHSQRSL
T7 sequence (Q8N423 22-597): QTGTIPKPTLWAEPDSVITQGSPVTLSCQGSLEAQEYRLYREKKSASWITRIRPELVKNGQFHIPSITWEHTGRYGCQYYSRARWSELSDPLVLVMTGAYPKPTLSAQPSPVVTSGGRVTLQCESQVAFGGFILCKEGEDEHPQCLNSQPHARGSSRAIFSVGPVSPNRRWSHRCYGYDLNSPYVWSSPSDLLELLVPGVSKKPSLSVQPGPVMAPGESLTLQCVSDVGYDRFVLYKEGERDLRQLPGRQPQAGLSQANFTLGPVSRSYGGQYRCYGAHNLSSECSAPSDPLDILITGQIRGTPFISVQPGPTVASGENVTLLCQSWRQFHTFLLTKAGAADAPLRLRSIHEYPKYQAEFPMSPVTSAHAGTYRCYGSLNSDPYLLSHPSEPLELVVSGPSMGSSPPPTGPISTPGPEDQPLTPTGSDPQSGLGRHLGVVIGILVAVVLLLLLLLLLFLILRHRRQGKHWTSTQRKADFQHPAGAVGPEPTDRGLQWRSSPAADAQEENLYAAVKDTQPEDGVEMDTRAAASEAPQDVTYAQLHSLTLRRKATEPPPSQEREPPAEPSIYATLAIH
T1 sequence (P59901 24-499): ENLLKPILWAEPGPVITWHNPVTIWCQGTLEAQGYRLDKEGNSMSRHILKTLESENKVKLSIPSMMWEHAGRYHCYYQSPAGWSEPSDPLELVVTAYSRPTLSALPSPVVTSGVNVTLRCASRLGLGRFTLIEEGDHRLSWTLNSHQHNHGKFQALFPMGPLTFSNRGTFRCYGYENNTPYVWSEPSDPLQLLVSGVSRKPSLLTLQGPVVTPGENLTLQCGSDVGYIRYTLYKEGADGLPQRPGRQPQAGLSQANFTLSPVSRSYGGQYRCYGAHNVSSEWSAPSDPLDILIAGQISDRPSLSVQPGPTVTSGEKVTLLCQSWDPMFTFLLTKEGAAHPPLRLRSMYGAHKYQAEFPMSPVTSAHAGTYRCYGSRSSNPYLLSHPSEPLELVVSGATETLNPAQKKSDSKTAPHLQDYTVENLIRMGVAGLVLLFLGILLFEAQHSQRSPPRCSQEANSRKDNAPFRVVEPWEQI
T6 sequence (O75023 24-590 limits assumed): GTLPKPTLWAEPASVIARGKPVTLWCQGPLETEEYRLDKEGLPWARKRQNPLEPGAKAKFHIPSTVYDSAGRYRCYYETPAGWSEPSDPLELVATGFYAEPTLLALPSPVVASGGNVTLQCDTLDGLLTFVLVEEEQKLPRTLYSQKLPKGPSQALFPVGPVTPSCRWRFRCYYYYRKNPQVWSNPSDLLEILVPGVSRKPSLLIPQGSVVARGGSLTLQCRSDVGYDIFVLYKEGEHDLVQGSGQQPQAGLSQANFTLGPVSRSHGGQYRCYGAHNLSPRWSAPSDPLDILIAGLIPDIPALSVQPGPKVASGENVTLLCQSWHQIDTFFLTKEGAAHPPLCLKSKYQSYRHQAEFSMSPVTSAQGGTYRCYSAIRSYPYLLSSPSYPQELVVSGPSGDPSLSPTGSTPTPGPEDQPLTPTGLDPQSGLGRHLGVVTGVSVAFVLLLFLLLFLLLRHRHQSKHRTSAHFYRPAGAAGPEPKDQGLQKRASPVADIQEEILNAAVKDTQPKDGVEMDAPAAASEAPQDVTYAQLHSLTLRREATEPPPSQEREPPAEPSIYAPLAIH
T9 sequence (Q8NHL6 24-650 limits assumed): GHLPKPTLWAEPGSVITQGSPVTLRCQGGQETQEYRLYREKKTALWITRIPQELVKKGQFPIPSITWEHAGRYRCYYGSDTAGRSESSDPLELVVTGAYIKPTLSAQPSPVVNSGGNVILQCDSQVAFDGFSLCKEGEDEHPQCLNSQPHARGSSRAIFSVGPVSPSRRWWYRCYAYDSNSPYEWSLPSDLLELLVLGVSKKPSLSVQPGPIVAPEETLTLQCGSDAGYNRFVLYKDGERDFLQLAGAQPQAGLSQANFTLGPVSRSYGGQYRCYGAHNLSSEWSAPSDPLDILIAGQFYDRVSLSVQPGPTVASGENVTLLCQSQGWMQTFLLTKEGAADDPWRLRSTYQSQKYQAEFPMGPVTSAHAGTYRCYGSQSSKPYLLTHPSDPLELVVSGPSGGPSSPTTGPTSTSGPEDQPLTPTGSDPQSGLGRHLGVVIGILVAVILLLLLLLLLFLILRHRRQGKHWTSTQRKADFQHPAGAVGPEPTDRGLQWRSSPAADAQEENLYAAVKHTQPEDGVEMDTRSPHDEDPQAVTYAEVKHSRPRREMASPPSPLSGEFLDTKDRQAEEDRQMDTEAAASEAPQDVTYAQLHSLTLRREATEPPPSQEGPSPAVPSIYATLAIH
T8 sequence (Q6PI73 24-481): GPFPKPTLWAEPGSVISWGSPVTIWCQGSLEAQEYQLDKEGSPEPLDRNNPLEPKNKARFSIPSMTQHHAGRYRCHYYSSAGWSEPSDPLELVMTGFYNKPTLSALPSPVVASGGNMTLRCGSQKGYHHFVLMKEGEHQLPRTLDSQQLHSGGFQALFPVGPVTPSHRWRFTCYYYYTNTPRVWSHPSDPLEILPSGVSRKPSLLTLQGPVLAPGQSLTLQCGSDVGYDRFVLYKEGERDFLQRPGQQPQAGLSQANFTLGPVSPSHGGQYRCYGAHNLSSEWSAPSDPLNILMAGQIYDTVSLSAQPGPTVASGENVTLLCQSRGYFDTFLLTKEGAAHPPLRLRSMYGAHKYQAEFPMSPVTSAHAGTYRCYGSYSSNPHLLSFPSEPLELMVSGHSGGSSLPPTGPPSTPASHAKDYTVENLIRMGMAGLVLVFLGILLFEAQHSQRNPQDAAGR
T3 sequence (A6NI73 42-299): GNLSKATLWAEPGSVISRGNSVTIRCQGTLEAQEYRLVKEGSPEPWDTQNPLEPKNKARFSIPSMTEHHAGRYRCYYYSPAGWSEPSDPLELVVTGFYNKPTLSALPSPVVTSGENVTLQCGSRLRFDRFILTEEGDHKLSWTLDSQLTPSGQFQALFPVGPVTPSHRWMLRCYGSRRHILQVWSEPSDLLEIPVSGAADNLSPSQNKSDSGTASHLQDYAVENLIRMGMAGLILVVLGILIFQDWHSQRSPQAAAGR

B1: B1-176 rabbit antibody (antibody, V domains shown)
VH: QSLEESEGGLVKPGGTLTLTCTASGFSFSSSYCMCWVRQAPGKGLELIACIYTDSSGATYYASWAKGRFTISKSSSTTITLQMTSLTAADTATYFCARGWDYEDPGYTDTTYFSLWGPGTLVTVSS
VL: ELDLTQTPSSVEAAVGGTVTIKCQASQTIYTNLAWYQQKPGQPPNLLIYAASTLASGVSSRFKGSGSGTEFTLTISDLECADAATYYCQSYYGSSTTGNGFGGGTEVEIK
notes: Full-length rabbit IgG, kappa; Variable genes were cloned into a rabbit IgG expression vector and expressed in Expi293F cells
For the molecule B1, the “percent of cells in the gate” value came out at 0.0736% with LILRA4 on reporter cells; 0.181% with LILRB4 on reporter cells; 0.101% in the assay with LILRA5 on reporter cells; 0.124% with LILRA1 on reporter cells [1]; 0.11% in the assay with LILRA2 on reporter cells [2]; 0.29% in the assay with LILRB5 on reporter cells. In addition, the “percent of cells in the gate” value was found to be 0.676% with LILRB2 on reporter cells, 0.123% with LILRA6 on reporter cells, 99.2% in assay [3] and 0.0698% with LILRB3 on reporter cells. Further, the binding result with LILRA1 on reporter cells [4] and in the assay with LILRA2 on reporter cells [5] was “no binding (tested: 0.5 µg/mL)” each time.
